The target in series [1] is RNAP core from E. coli (EcoRNAP core) (E. coli) (UniProt P0A8V2).
For series [2] the target is unchanged. The source holds these as a separate data set.
For series [3], the target named is RNA polymerase core (EcoRNAP) (Escherichia coli, UniProt P0A7Z4;P0A8V2;P0A8T7;P0A800 1-329;1-1342;1-1407;2-91). Nature of the series: pull-down (Ni-agarose RNA retention); 1 M NaCl wash; 40 mM HEPES pH 7.9, 5 mM MgCl2, 50 mM NaCl, 5% glycerol; binding to Ni-NTA at 18 C, washes with 250 mM NaCl (1 M for core controls), labeling at 22 C. The note with it: protein: recombinant; tags: C-terminal 6xHis on rpoC; chain copies: 2;1;1;1; 9-bp downstream duplex, 10-nt 3' template overhang; 13-nt RNA with unpaired 5' end.

For series [4], the target named is full-length σ^70 subunit of E. coli RNA polymerase (E. coli) (UniProt P00579).
full-length σ^70 subunit of E. coli RNA polymerase (E. coli), sequence (P00579 whole entry): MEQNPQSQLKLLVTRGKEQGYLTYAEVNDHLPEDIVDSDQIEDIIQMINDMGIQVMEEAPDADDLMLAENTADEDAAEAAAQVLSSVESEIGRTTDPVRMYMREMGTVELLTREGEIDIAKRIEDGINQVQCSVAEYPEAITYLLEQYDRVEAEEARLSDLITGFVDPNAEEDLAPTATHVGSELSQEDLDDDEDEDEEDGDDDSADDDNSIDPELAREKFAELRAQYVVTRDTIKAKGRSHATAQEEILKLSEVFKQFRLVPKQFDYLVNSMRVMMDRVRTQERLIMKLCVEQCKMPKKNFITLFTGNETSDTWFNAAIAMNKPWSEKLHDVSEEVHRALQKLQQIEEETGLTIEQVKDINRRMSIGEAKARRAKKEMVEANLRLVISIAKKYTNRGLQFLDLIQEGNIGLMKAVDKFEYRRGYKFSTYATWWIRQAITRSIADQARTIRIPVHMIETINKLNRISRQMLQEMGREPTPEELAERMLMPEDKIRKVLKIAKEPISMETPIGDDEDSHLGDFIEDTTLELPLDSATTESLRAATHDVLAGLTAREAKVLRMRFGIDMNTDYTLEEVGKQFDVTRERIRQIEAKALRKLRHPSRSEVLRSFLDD

Here are results for six molecules from PMC7948647, “Region 4 of the RNA polymerase σ subunit counteracts pausing during initial transcription”.

RNAP core from E. coli (EcoRNAP core) (E. coli), sequence (P0A8V2 whole entry, looked up): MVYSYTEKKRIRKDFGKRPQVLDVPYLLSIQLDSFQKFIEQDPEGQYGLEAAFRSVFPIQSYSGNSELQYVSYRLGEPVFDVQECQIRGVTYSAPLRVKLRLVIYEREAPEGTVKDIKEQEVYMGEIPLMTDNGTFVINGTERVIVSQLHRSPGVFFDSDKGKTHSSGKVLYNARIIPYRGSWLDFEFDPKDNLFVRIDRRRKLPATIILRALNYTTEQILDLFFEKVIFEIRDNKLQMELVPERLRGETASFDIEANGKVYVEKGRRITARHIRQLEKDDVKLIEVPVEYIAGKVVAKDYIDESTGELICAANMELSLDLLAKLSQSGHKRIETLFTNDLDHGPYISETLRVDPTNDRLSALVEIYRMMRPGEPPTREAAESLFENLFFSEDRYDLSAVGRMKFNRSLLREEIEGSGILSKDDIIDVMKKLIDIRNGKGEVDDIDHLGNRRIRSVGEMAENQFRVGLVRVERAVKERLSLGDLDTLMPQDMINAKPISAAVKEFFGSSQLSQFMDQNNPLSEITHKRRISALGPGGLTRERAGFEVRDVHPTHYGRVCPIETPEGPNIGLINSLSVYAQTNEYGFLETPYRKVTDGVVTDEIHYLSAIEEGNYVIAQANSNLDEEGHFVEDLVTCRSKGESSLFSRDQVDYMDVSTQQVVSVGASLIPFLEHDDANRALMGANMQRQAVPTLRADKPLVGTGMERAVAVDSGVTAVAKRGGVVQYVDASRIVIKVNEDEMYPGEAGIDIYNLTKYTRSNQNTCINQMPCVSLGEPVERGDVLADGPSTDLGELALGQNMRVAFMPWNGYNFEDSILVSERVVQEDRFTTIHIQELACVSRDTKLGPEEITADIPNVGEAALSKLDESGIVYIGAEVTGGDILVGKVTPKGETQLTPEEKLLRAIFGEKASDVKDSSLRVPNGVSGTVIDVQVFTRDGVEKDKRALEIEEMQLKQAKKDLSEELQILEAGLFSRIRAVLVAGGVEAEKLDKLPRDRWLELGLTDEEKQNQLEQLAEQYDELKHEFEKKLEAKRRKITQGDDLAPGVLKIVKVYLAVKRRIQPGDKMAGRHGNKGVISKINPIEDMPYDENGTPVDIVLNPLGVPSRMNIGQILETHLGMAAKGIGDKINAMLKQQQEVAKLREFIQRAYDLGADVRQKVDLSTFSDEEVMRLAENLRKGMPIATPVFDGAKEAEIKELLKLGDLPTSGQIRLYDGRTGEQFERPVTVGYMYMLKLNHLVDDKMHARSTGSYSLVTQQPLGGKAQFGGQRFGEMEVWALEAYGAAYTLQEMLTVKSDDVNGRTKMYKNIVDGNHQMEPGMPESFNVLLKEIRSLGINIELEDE

As for “σ_(Δ3–4) fragment of σ^70 (residues 1–448) (from UniProt P00579 1-448) (domain or fragment)”, in series [1], the translocation efficiency (fraction of 5-nt RNA) in extension of the 2-nt primer GpC on the LDT scaffold was under 50%.
“full-length σ^70 subunit of E. coli RNA polymerase (from UniProt P00579 1-613) (natural protein)” showed a translocation efficiency (fraction of 5-nt RNA) in extension of the 2-nt primer GpC on the LDT scaffold; core alone about 40% in series [2] of 95%.
As for “σΔ4 fragment of σ^70 (residues 1–529) (from UniProt P00579 1-529) (domain or fragment)”, in series [1], the translocation efficiency (fraction of 5-nt RNA) in extension of the 2-nt primer GpC on the LDT scaffold is under 50%.
Same read-out and setting: to “σ_(Δ4.2) fragment of σ^70 (residues 1–553) (from UniProt P00579 1-553) (domain or fragment)” belongs under 50%.

B1: SDT scaffold + pRNA13 (mixed)
RNA: AAUUGUGAGCGGA
DNA 1: TGCAATTGTCATCCGCTCA
DNA 2: ACAATTGCA
Regarding B1, in series [3], the binding result is reported as “binds”.

B2: T4 phage coactivator protein AsiA (natural protein)
chain: MNKNIDTVREIITVASILIKFSREDIVENRANFIAFLNEIGVTHEGRKLNQNSFRKIVSELTQEDKKTLIDEFNEGFEGVYRYLEMYTNK
In series [4], B2 gave an inhibition by 1 μM AsiA of abortive transcription by σ^70-EcoRNAP at the lacUV5 promoter (AsiA used to disrupt the pair σ4.2 of σ^70 and β-FTH of the core) of 85%; an inhibition by 1 μM AsiA of de novo 3-nt RNA synthesis by σ^70-EcoRNAP on the SDT2 scaffold (AsiA used to disrupt the pair σ4.2 of σ^70 and β-FTH of the core) of 50%.
